Kd data for one molecule are collected here from article PMC9287376.

Conditions in all cases: natural protein; chains chain; remark: other sources report otherwise
In assay [1] the target is T1, wild-type trigger factor, P0A850.
T1 chain: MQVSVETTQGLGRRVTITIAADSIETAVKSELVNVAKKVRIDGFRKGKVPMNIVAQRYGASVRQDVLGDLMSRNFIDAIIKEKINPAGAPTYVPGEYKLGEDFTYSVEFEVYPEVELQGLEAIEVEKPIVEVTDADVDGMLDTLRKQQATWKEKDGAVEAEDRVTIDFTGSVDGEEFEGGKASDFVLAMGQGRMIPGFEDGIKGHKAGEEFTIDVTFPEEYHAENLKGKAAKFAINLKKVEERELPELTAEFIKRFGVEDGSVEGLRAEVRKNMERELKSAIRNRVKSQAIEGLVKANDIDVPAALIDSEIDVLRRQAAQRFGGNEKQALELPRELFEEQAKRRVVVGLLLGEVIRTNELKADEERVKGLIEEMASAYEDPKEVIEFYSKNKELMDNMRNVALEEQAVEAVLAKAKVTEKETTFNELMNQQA
The assay is described as follows: native buffer, no denaturant.

For assay [2] the target is unchanged. Description: 0.06 M GdnHCl.
Assay [3] has the same target. The assay is described as follows: 0.26 M GdnHCl.

B1: wild-type trigger factor, P0A850 1-432 (protein)
chain: MQVSVETTQGLGRRVTITIAADSIETAVKSELVNVAKKVRIDGFRKGKVPMNIVAQRYGASVRQDVLGDLMSRNFIDAIIKEKINPAGAPTYVPGEYKLGEDFTYSVEFEVYPEVELQGLEAIEVEKPIVEVTDADVDGMLDTLRKQQATWKEKDGAVEAEDRVTIDFTGSVDGEEFEGGKASDFVLAMGQGRMIPGFEDGIKGHKAGEEFTIDVTFPEEYHAENLKGKAAKFAINLKKVEERELPELTAEFIKRFGVEDGSVEGLRAEVRKNMERELKSAIRNRVKSQAIEGLVKANDIDVPAALIDSEIDVLRRQAAQRFGGNEKQALELPRELFEEQAKRRVVVGLLLGEVIRTNELKADEERVKGLIEEMASAYEDPKEVIEFYSKNKELMDNMRNVALEEQAVEAVLAKAKVTEKETTFNELMNQQA
B1: the results for the Kd in assay [1], in assay [2] and in assay [3] were 18.4 µM, 29 µM and 76 µM, respectively.
